To fix the notation:
B1: MAGUK p55 subfamily member 2 (Homo sapiens), Q14168-2 (parent)
chain: MPVAATNSETAMQQVLDNLGSLPSATGAAELDLIFLRGIMESPIVRSLAKAHERLEETKLEAVRDNNLELVQEILRDLAHVAEQSSTAAELAHILQEPHFQSLLETHDSVASKTYETPPPSPGLDPTFSNQPVPPDAVRMVGIRKTAGEHLGVTFRVEGGELVIARILHGGMVAQQGLLHVGDIIKEVNGQPVGSDPRALQELLRNASGSVILKILPSYQEPHLPRQVFVKCHFDYDPARDSLIPCKEAGLRFNAGDLLQIVNQDDANWWQACHVEGGSAGLIPSQLLEEKRKAFVKRDLELTPNSGTLCGSLSGKKKKRMMYLTTKNAEFDRHELLIYEEVARMPPFRRKTLVLIGAQGVGRRSLKNKLIMWDPDRYGTTVPYTSRRPKDSEREGQGYSFVSRGEMEADVRAGRYLEHGEYEGNLYGTRIDSIRGVVAAGKVCVLDVNPQAVKVLRTAEFVPYVVFIEAPDFETLRAMNRAALESGISTKQLTEADLRRTVEESSRIQRGYGHYFDLCLVNSNLERTFRELQTAMEKLRTEPQWVPVSWVY
partner: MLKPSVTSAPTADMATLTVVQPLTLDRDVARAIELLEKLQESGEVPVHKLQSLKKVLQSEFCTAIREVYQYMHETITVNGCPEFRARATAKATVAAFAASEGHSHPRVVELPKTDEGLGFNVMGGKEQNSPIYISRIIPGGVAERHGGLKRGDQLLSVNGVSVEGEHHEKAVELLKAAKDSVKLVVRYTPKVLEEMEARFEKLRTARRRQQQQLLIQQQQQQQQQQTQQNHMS
B2: Myogenin (Homo sapiens), P15173 (parent)
chain: MELYETSPYFYQEPRFYDGENYLPVHLQGFEPPGYERTELTLSPEAPGPLEDKGLGTPEHCPGQCLPWACKVCKRKSVSVDRRRAATLREKRRLKKVNEAFEALKRSTLLNPNQRLPKVEILRSAIQYIERLQALLSSLNQEERDLRYRGGGGPQPGVPSECSSHSASCSPEWGSALEFSANPGDHLLTADPTDAHNLHSLTSIVDSITVEDVSVAFPDETMPN
partner: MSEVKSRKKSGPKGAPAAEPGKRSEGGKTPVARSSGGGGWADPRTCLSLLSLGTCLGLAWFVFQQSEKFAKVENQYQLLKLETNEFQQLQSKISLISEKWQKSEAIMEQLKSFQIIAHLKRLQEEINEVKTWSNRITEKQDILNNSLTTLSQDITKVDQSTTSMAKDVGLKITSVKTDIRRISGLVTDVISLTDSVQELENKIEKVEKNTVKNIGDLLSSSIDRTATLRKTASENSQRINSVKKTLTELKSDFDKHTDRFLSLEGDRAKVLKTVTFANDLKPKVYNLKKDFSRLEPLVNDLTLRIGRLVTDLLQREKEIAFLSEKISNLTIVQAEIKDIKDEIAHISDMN
B3: Cytosolic 5'-nucleotidase 1A (Homo sapiens), Q9BXI3 (parent)
chain: MEPGQPREPQEPREPGPGAETAAAPVWEEAKIFYDNLAPKKKPKSPKPQNAVTIAVSSRALFRMDEEQQIYTEQGVEEYVRYQLEHENEPFSPGPAFPFVKALEAVNRRLRELYPDSEDVFDIVLMTNNHAQVGVRLINSINHYDLFIERFCMTGGNSPICYLKAYHTNLYLSADAEKVREAIDEGIAAATIFSPSRDVVVSQSQLRVAFDGDAVLFSDESERIVKAHGLDRFFEHEKAHENKPLAQGPLKGFLEALGRLQKKFYSKGLRLECPIRTYLVTARSAASSGARALKTLRSWGLETDEALFLAGAPKGPLLEKIRPHIFFDDQMFHVAGAQEMGTVAAHVPYGVAQTPRRTAPAKQAPSAQ
B4: STAM-binding protein (Homo sapiens), O95630 (parent)
chain: MSDHGDVSLPPEDRVRALSQLGSAVEVNEDIPPRRYFRSGVEIIRMASIYSEEGNIEHAFILYNKYITLFIEKLPKHRDYKSAVIPEKKDTVKKLKEIAFPKAEELKAELLKRYTKEYTEYNEEKKKEAEELARNMAIQQELEKEKQRVAQQKQQQLEQEQFHAFEEMIRNQELEKERLKIVQEFGKVDPGLGGPLVPDLEKPSLDVFPTLTVSSIQPSDCHTTVRPAKPPVVDRSLKPGALSNSESIPTIDGLRHVVVPGRLCPQFLQLASANTARGVETCGILCGKLMRNEFTITHVLIPKQSAGSDYCNTENEEELFLIQDQQGLITLGWIHTHPTQTAFLSSVDLHTHCSYQMMLPESVAIVCSPKFQETGFFKLTDHGLEEISSCRQKGFHPHSKDPPLFCSCSHVTVVDRAVTITDLR
partner: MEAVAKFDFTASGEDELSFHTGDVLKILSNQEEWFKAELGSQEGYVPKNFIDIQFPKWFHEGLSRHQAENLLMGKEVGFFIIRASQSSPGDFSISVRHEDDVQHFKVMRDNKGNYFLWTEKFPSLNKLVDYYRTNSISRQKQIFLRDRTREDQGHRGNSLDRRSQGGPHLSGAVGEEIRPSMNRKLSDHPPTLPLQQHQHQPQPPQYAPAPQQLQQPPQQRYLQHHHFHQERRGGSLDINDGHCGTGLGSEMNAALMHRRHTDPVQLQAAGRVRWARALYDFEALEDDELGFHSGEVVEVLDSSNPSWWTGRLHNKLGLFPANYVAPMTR
B5: Conserved oligomeric Golgi complex subunit 7 (Homo sapiens), P83436 (parent)
chain: MDFSKFLADDFDVKEWINAAFRAGSKEAASGKADGHAATLVMKLQLFIQEVNHAVEETSHQALQNMPKVLRDVEALKQEASFLKEQMILVKEDIKKFEQDTSQSMQVLVEIDQVKSRMQLAAESLQEADKWSTLSADIEETFKTQDIAVISAKLTGMQNSLMMLVDTPDYSEKCVHLEALKNRLEALASPQIVAAFTSQAVDQSKVFVKVFTEIDRMPQLLAYYYKCHKVQLLAAWQELCQSDLSLDRQLTGLYDALLGAWHTQIQWATQVFQKPHEVVMVLLIQTLGALMPSLPSCLSNGVERAGPEQELTRLLEFYDATAHFAKGLEMALLPHLHEHNLVKVTELVDAVYDPYKPYQLKYGDMEESNLLIQMSAVPLEHGEVIDCVQELSHSVNKLFGLASAAVDRCVRFTNGLGTCGLLSALKSLFAKYVSDFTSTLQSIRKKCKLDHIPPNSLFQEDWTAFQNSIRIIATCGELLRHCGDFEQQLANRILSTAGKYLSDSCSPRSLAGFQESILTDKKNSAKNPWQEYNYLQKDNPAEYASLMEILYTLKEKGSSNHNLLAAPRAALTRLNQQAHQLAFDSVFLRIKQQLLLISKMDSWNTAGIGETLTDELPAFSLTPLEYISNIGQYIMSLPLNLEPFVTQEDSALELALHAGKLPFPPEQGDELPELDNMADNWLGSIARATMQTYCDAILQIPELSPHSAKQLATDIDYLINVMDALGLQPSRTLQHIVTLLKTRPEDYRQVSKGLPRRLATTVATMRSVNY

The first assay covers variants of B1. The conditions noted are these: with lin7a_human LIN7A.
As to R500W, the “effect of a mutation on the interaction” value is given as “with no effect”.

In the next assay the parent is B2. The note with it: with ikip_human IKBIP.
For the variant A181T, the “effect of a mutation on the interaction” value is recorded as “disrupting interaction strength”.

A further assay covers variants of B3. The conditions noted are these: with ntaq1_human NTAQ1, Q96HA8.
Regarding Y34C, the “effect of a mutation on the interaction” value is reported as “with no effect”.

The variants in a further assay derive from B4. The conditions noted are these: with grap2_human GRAP2, O75791.
As for R255H, the “effect of a mutation on the interaction” value was “with no effect”.

For Q155H, the “effect of a mutation on the interaction” value was “disrupting interaction strength”.

Variants of B5 are the subject of a further assay. The conditions noted are these: with taxb1_human TAX1BP1, Q86VP1.
Sequence of taxb1_human TAX1BP1, Q86VP1 (Q86VP1 whole entry): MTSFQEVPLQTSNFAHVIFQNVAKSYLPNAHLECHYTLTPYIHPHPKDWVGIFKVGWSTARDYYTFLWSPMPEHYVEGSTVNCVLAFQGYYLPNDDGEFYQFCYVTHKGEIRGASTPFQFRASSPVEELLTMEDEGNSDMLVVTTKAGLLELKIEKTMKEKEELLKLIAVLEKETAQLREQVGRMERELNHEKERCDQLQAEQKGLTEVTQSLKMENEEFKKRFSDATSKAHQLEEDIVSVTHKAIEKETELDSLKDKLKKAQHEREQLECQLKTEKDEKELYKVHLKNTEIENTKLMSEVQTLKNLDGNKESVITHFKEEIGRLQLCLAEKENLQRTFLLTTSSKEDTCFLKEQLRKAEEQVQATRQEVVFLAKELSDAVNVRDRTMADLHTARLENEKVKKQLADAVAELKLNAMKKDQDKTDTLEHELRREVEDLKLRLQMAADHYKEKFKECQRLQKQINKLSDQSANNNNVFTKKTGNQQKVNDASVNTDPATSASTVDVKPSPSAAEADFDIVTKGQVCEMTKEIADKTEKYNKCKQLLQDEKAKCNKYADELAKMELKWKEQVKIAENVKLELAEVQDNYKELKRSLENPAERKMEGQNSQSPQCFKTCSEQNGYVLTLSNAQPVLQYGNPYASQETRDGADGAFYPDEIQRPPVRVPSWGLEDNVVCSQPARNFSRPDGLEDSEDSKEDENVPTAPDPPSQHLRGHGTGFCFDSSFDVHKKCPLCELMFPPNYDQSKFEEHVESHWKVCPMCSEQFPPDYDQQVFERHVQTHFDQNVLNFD
For the variant Q749K, the “effect of a mutation on the interaction” value was “with no effect”.
